The chains are these.
B1: Protein Mdm4 (Homo sapiens), O15151 (parent)
chain: MTSFSTSAQCSTSDSACRISPGQINQVRPKLPLLKILHAAGAQGEMFTVKEVMHYLGQYIMVKQLYDQQEQHMVYCGGDLLGELLGRQSFSVKDPSPLYDMLRKNLVTLATATTDAAQTLALAQDHSMDIPSQDQLKQSAEESSTSRKRTTEDDIPTLPTSEHKCIHSREDEDLIENLAQDETSRLDLGFEEWDVAGLPWWFLGNLRSNYTPRSNGSTDLQTNQDVGTAIVSDTTDDLWFLNESVSEQLGVGIKVEAADTEQTSEEVGKVSDKKVIEVGKNDDLEDSKSLSDDTDVEVTSEDEWQCTECKKFNSPSKRYCFRCWALRKDWYSDCSKLTHSLSTSDITAIPEKENEGNDVPDCRRTISAPVVRPKDAYIKKENSKLFDPCNSVEFLDLAHSSESQETISSMGEQLDNLSEQRTDTENMEDCQNLLKPCSLCEKRPRDGNIIHGRTGHLVTCFHCARRLKKAGASCPICKKEIQLVIKVFIA

These results are taken from IntAct's records for PubMed 16511560.

In the experiment the parent is B1. To be noted: with ima4_human KPNA3, O00505.
ima4_human KPNA3, O00505, sequence (O00505 whole entry): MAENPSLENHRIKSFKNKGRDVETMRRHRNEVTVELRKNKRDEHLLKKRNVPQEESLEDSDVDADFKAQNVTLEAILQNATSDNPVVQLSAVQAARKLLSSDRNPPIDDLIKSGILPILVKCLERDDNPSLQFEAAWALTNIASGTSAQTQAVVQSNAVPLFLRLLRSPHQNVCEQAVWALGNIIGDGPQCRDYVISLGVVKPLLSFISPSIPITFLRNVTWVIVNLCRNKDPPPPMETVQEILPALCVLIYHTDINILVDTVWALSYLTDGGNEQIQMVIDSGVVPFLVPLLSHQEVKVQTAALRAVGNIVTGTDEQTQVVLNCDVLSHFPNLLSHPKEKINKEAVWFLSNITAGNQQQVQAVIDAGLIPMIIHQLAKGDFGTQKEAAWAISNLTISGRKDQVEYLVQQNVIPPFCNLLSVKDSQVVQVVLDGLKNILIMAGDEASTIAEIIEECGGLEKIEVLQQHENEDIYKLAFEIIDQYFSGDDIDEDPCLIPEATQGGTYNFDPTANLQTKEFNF
Take MTSFSTSAQCSTSDSACRISPGQINQVRPKLPLLKILHAAGAQGEMFTVKEVMHYLGQYIMVKQLYDQQEQHMVYCGGDLLGELLGRQSFSVKDPSPLYDMLRKNLVTLATATTDAAQTLALAQDHSMDIPSQDQLKQSAEESSTSRKRTTEDDIPTLPTSEHKCIHSREDEDLIENLAQDETSRLDLGFEEWDVAGLPWWFLGNLRSNYTPRSNGSTDLQTNQDVGTAIVSDTTDDLWFLNESVSEQLGVGIKVEAADTEQTSEEVGKVSDKKVIEVGKNDDLEDSKSLSDDTDVEVTSEDEWQCTECKKFNSPSKRYCFRCWALRKDWYSDCSKLTHSLSTSDITAIPEKENEGNDVPDCRRTISAPVVRPKDAYIKKENSKLFDPCNSVEFLDLAHSSESQETISSMGEQLDNLSEQRTDTENMEDCQNLLKPCSLCEKRPRDGNIIHGRTGHLVTCFHCARRLEKAGASCPICKKEIQLVIKVFIA [K468E]: the “effect of a mutation on the interaction” value is “disrupting interaction”.
